In paper PMC9304148:

Columns and labels:
[1] = molecular target: CarHCfu (Cystobacter fuscus CarH), purified (Cystobacter fuscus); experiment: SEC; analytical size exclusion, Superdex200 HR 10/30; 100 ul of 50-100 uM protein after 15-min incubation with five-fold molar excess of AdoCbl, in the dark; dimer by apparent Mr
[2] = molecular target: CarHCfu (Cystobacter fuscus CarH), purified (Cystobacter fuscus); experiment: SEC; analytical size exclusion, Superdex200 HR 10/30; 100 ul of 50-100 uM pure apoprotein alone, in the dark; dimer by apparent Mr
[3] = molecular target: CarHCfe (Cystobacter ferrugineus CarH), purified (Cystobacter ferrugineus); experiment: SEC; analytical size exclusion, Superdex200 HR 10/30; 100 ul of 50-100 uM protein after 15-min incubation with five-fold molar excess of AdoCbl, in the dark; dimer by apparent Mr
[4] = molecular target: CarHCfe (Cystobacter ferrugineus CarH), purified (Cystobacter ferrugineus); experiment: SEC; analytical size exclusion, Superdex200 HR 10/30; 100 ul of 50-100 uM pure apoprotein alone, in the dark; dimer by apparent Mr
[5] = test system: CarHCfu (Cystobacter fuscus DSM 2262 (strain as in the genome table)); experiment: EMSA; settings: EMSA: 0.1 M KCl, 10 mM MgCl2, 25 mM Tris-HCl pH 8, 1 mM DTT, 10% glycerol, 200 ng/ul BSA, 1 ug salmon sperm DNA, 1.2 nM probe, AdoCbl 5-fold over protein, 37 °C

Substance: CarHCfu (Cystobacter fuscus CarH), purified (natural protein)
- stoichiometry N [1]: 2
- stoichiometry N [2]: 2

Substance: CarHCfe (Cystobacter ferrugineus CarH), purified (natural protein)
- stoichiometry N [3]: 2
- stoichiometry N [4]: 2

Substance: Pcrt Cfu 170 bp
- Kd [5]: 34.7 nM
